Paper PMC9882608, “Structure of an endogenous mycobacterial MCE lipid transporter” (Research Square, 2023)

Target: the molecule itself
Experiment: cryo-EM structure

B1: MceG-GFP (MceG, MSMEG_1366, chromosomally tagged with GFP at its C-terminus) (enzyme, UniProt A0QS64 1-360, looked up)
chain: MGVQIDVTGLSKSFGSSKIWEDVTMSIPAGEVSVLLGPSGTGKSVFLKSLIGLLRPERGSIVIDGTDILQCSAKELYEIRTLFGVLFQDGALFGSMNIYDNTAFPLREHTKKSESEIRKIVMEKLDLVGMPNDGHKFPGEISGGMRKRAGLARALVLDPEIILCDEPDSGLDPVRTAYLSQLLIDINAQIDATVLIVTHNINIARTVPDNMGMLFRKQLVMFGPREVLLTSEEPVVKQFLNGRRIGPIGMSEEKDEATAAAEQALVDAGQHDGGVEEIEGVPPQLQATPGMPERKAVARRKARVREILHTLPPAAQAAILEELDRDQPQLSAPTTQTAATAPVENYDDSPTGVIEVPKQA
notes: MceG, ATPase of the MCE ABC transporters, Mycobacterium smegmatis, locus MSMEG_1366; endogenous protein; printed residue numbers run to 360 (residues 1, 256-280 and 326-360 not modelled); also called GFP-tagged MceG; MceG ATPase; not shown: eGFP, C-terminal, kept
stoichiometry N: 2
